Results: patent publication US20220177593A1 (CELLDEX THERAPEUTICS, published 2022)

T1: human Axl expressed on the surface of cells (human, UniProt P30530 26-894)
T1 construct: whole, on cells; also called huAxl; Axl on H1299 cells
T1 sequence (looked up): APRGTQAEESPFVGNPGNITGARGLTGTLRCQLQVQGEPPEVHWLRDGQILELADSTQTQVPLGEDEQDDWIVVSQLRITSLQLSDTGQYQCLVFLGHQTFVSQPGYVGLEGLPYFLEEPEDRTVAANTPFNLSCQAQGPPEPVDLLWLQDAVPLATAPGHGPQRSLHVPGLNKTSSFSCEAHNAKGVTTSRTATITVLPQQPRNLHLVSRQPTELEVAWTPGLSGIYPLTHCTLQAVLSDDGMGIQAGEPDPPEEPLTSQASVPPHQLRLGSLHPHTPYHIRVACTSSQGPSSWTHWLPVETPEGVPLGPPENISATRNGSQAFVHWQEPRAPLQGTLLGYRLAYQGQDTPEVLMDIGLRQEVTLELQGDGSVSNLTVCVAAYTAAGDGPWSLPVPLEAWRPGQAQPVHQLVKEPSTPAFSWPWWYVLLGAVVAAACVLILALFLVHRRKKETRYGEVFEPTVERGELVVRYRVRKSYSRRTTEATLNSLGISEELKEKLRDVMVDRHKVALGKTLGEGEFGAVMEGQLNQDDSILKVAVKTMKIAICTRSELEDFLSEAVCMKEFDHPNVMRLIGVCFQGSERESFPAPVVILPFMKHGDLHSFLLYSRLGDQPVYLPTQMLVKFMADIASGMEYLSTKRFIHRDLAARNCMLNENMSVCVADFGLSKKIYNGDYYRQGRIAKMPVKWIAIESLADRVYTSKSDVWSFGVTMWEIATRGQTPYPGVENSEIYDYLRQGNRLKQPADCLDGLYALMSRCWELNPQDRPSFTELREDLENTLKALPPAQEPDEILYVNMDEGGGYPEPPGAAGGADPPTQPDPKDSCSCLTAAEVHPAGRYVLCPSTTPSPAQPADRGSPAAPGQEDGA

T2: recombinant human Axl-msFc (human, UniProt P30530 26-449, limits assumed)
T2 construct: also called soluble human Axl-msFc; huAxl; not shown: mouse Fc (msFc)
T2 sequence (looked up): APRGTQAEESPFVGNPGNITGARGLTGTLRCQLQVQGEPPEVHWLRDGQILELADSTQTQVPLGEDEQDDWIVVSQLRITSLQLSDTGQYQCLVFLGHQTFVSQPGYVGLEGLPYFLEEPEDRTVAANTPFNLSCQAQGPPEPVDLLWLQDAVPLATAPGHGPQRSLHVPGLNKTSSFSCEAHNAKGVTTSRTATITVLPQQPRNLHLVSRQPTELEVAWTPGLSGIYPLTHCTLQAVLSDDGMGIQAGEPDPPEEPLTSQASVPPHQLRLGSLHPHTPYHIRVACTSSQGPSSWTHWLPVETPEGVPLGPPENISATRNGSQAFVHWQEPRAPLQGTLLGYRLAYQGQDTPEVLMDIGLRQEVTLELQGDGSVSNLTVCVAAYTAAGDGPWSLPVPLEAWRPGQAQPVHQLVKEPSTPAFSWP

T3: purified extracellular domain of human Axl (human, UniProt P30530 26-451)
T3 construct: extracellular domain; also called human Axl-ECD; Axl-ECD
T3 sequence (looked up): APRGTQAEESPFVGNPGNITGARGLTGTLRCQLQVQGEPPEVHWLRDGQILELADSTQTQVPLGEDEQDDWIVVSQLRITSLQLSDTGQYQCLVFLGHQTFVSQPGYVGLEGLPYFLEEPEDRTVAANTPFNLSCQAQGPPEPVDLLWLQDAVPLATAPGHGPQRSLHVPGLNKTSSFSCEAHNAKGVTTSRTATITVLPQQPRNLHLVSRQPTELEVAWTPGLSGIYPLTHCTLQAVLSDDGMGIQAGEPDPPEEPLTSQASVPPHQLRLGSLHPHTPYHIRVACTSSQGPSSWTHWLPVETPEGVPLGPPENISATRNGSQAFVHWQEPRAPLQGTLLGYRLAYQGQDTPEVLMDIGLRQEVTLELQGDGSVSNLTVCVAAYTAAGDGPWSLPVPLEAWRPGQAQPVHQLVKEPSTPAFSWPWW

T4: purified extracellular domain of human MerTK (human, UniProt Q12866 21-505)
T4 construct: extracellular domain; also called human MerTK-ECD
T4 sequence (looked up): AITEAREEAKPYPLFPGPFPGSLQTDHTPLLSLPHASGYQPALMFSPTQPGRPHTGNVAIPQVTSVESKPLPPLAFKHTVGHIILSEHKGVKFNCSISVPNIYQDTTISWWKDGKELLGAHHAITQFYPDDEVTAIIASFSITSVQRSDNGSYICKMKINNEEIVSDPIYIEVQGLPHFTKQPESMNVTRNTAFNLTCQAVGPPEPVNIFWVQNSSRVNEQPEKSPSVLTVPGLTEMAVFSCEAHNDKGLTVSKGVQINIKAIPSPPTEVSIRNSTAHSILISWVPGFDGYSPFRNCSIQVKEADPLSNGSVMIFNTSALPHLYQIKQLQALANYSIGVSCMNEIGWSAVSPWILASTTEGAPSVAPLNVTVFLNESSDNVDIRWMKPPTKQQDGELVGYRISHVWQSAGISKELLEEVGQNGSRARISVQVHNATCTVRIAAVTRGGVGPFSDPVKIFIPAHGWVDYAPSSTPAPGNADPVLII


Key:
[1] = molecular target: T1, human Axl expressed on the surface of …; assay: flow cytometry on H1299 cells
Procedure: (§1) The ability of anti-Axl human antibodies to bind to Axl on cells expressing human Axl on their surface was investigated by flow cytometry as follows: Purified antibodies were incubated with either L cells expressing human Axl on their surface or H1299 cells at room temperature on a plate shaker. After 20 minutes, the cells were washed with PBS containing 0.1% BSA and 0.05% NaN₃ (PBA), and the bound antibodies were detected by incubating the cells with a phycoerythrin (PE)-labeled goat anti-human IgG Fc-specific probe. The excess probe was washed from the cells with PBA and the cell-associated fluorescence was determined by analysis using a FACSCanto II™ instrument (BD Biosciences, NJ, USA) according to the manufacturer's directions.

[2] = molecular target: T2, recombinant human Axl-msFc; assay: ELISA, plates coated with recombinant human Axl-msFc
Procedure: Binding of Ab301 and four humanized antibody subclones to human Axl was determined by ELISA using the following protocol: Microtiter plates were coated with recombinant human Axl-msFc, in phosphate-buffered saline (PBS), and then blocked with 5% bovine serum albumin (BSA) in PBS. Protein A purified human monoclonal antibodies and an isotype control were added at various concentrations and incubated at 37° C. The plates were washed with PBS/Tween and then incubated with a goat-anti-human IgG Fc-specific polyclonal reagent conjugated to horseradish peroxidase (HRP) at 37° C. After washing, the plates were developed with HRP substrate, and analyzed at OD 450-650 using a microtiter plate reader.

[3] = molecular target: T1, human Axl expressed on the surface of …; assay: flow cytometry on L cells expressing human Axl
Procedure: as §1

[4] = molecular target: T5, Domain 1 (Ig-like domain 1) of the human Axl extracellular domain (human, UniProt P30530 34-137); assay: ELISA on purified Axl domains coated on plates, Ab301 at 5 ug/mL
T5 construct: The tag is not described; also called D1; Domain 1 of the Axl-ECD alone
Procedure: (§2) Human Axl domains (D1-D4) of the Axl extracellular domain (Axl-ECD) were expressed in Exi293 cells, purified by nickel affinity chromatography and buffer exchanged to PBS. […] Ab301 was added at 5 μg/mL for 1 hour at room temperature, washed, and subsequently incubated with an HRP- conjugated goat anti-human antibody (Jackson Immunoresearch). Plates were washed and incubated with TMB (Pierce Biotechnology).

[5] = molecular target: T3, purified extracellular domain of human …; assay: as above
Procedure: as §2

[6] = molecular target: T4, purified extracellular domain of human …; assay: ELISA, plates coated with 100 ng purified extracellular domain, titration of Ab301
Procedure: Binding of Ab301 to human Axl extracellular domain and its lack of binding to human MerTK extracellular domain was determined using the following protocol: Nunc MaxiSorb™ plates (Thermo Fisher Scientific) were coated with 100 ng of the purified extracellular domain of human Axl or human MerTK in […] borate buffer, overnight at 4° C. Plates were washed and blocked for 1 hour at room temperature with Tris-buffered saline (TBS) with 1% BSA. A titration of Ab301 was added to the coated plates for 1 hour at room temperature, followed by washing and incubation with an HRP-conjugated goat anti-human antibody (Jackson Immunoresearch) for 1 hour at room temperature. Washed plates were incubated with 3,3′,5,5′-Tetramethylbenzidine (TMB) substrate (Thermo Fisher Scientific) and read using a Biotek® plate reader. Data are plotted as the optical density at 450 nm (Abs450) as a function of the log-transformed molar concentration of Ab301, and fit to a 4-parameter binding curve using GraphPad Prism™.

Binder | binding result [1] | binding result [2] | binding result [3] | binding result [4] | binding result [5] | binding result [6]
Ab302 (antibody, V domains shown, Humanized) VH: EVQLVESGGGLVKPGGSLKLSCAASGFTFSDYWMEWVRQAPGKGLEWVAEIRNKVNNYATYYGKSVKGRFTISRDDSKNTLYLQMNSLKTEDTAVYYCNTLRLFAYWGQGTLVTVSS VL: DIQMTQSPSSLSASVGDRVTITCRSSKSLLHRQGITYVYWYQQKPGKVPKLLIYRMSTLASGVPSRFSGSGSGTDFTLTISSLQPEDVATYYCGQLLENPYTFGQGTKLEIK | binds | binds |  |  |  | 
Ab303 (antibody, V domains shown, Humanized) VH: EVQLVESGGGVVQPGRSLRLSCAASGFTFSDYWMEWVRQAPGKGLEWVAEIRNKVNNYATYYGKSVKGRFTISRDNSKNTLYLQMNSLRAEDTAVYYCNTLRLFAYWGQGTLVTVSS VL: DIQMTQSPSSLSASVGDRVTITCRSSKSLLHRQGITYVYWYQQKPGKVPKLLIYRMSTLASGVPSRFSGSGSGTDFTLTISSLQPEDVATYYCGQLLENPYTFGQGTKLEIK | binds | binds |  |  |  | 
Ab304 (antibody, V domains shown, Humanized) VH: EVQLVESGGGLVQPGGSLRLSCAASGFTFSDYWMEWVRQAPGKGLEWVGEIRNKVNNYATYYGKSVKGRFTISRDESKNSLYLQMNSLKTEDTAVYYCNTLRLFAYWGQGTTVTVSS VL: DIQMTQSPSSLSASVGDRVTITCRSSKSLLHRQGITYVYWYQQKPGKVPKLLIYRMSTLASGVPSRFSGSGSGTDFTLTISSLQPEDVATYYCGQLLENPYTFGQGTKLEIK | binds | binds |  |  |  | 

More lines, now with the values ahead:

binding result [1] | binding result [2] | binding result [3] | binding result [4] | binding result [5] | binding result [6] | Binder
binds | binds |  |  |  |  | Ab305 (antibody, V domains shown, Humanized) VH: EVQLVESGGGLVQPGRSLRLSCTASGFTFSDYWMEWVRQAPGKGLEWVGEIRNKVNNYATYYGKSVKGRFTISRDDSKSIAYLQMNSLKTEDTAVYYCNTLRLFAYWGQGTLVTVSA VL: DIQMTQSPSSLSASVGDRVTITCRSSKSLLHRQGITYVYWYQQKPGKVPKLLIYRMSTLASGVPSRFSGSGSGTDFTLTISSLQPEDVATYYCGQLLENPYTFGQGTKLEIK
 | binds | binds | binds | binds | no binding | Ab301 (antibody, human IgG1, V domains shown, also called anti-Axl antibody Ab301) VH: EVKLEASGGGLVQPGMSVKLSCTTSGFTFSDYWMEWVRQAPGKGLEWVAEIRNKVNNYATYYGKSVKGRFTISRDDSKSIVYLQMNSIRSEDTGIYYCNTLRLFAYWGQGTLVTVSA VL: DIVMTQAPLSISVTPGESPSMSCRSSKSLLHRNGITYVYWYLQKPGKSPQLLIYRMSTLASGVPDRFSGSGSETDFTLKINKVEAEDVGIYYCGQLLENPYTFGAGTRLEIK
